This note sets out measurements from publication PMC11283359 (Molecular cell, 2024).

The assay addresses T1, 3XFLAG-MED26 (knock-in) (mouse (endogenous in CH12), UniProt Q7TN02 1-588).
T1 sequence (looked up): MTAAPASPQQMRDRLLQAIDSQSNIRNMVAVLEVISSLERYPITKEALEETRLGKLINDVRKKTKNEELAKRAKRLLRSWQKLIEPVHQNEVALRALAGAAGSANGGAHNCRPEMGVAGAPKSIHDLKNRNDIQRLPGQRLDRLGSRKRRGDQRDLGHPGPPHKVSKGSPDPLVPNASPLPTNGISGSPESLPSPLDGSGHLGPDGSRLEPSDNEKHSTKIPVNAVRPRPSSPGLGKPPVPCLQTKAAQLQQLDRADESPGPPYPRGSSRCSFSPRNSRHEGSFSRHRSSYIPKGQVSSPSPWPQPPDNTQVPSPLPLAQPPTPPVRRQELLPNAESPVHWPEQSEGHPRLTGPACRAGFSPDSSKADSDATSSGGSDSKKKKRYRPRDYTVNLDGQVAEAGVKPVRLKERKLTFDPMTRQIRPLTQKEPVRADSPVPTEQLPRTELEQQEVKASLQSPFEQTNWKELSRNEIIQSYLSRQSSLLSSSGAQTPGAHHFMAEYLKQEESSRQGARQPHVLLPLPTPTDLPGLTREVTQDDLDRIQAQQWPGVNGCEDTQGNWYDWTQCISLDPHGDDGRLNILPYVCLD
In words: cryo-EM structure.

B1: MED7 (natural protein, mouse (endogenous in CH12), UniProt Q9CZB6 1-233, looked up)
chain: MGEPQQVSALPPPPMQYIKEYTDENIQEGLAPKPPPPIKDSYMMFGNQFQCDDLIIRPLESQGIERLHPMQFDHKKELRKLNMSILINFLDLLDILIRSPGSIKREEKLEDLKLLFVHVHHLINEYRPHQARETLRVMMEVQKRQRLETAERFQKHLERVIEMIQNCLASLPDDLPHSEAGMRVKAEPMDTDDNSNCPGQNEQQRESSGHRRDQIIEKDAALCVLIDEMNERP
Regarding B1, the binding result is reported as “binds”.

B2: MED31 (endogenous) (natural protein, mouse (endogenous in CH12), UniProt Q9CXU1 1-131, looked up)
chain: MAAAVAMETDDAGNRLRFQLELEFVQCLANPNYLNFLAQRGYFKDKAFVNYLKYLLYWKEPEYAKYLKYPQCLHMLELLQYEHFRKELVNAQCAKFIDEQQILHWQHYSRKRVRLQQALAEQQQQNNTAGK
B2: the binding result is “binds”.

B3: MED21 (natural protein, mouse (endogenous in CH12), UniProt Q9CQ39 1-144, looked up)
chain: MADRLTQLQDAVNSLADQFCNAIGVLQQCGPPASFSNIQTAINKDQPANPTEEYAQLFAALIARTAKDIDVLIDSLPSEESTAALQAASLYKLEEENHEAATCLEDVVYRGDMLLEKIQSALADIAQSQLKTRSVTHSHSLPDS
Regarding B3, the binding result was “binds”.
